Experimental data reported in the DeepSol protein solubility set.

test: soluble on expression in E. coli; label from the status in PepcDB or PDB records

Row | Sequence | soluble on expression in E. coli
1 | MRELGLEIPVEEVYNANSISLKDAVVHFGGGCTGEVISSEGLVLTNHHCGYGAIQQHSNVEHDYLTEGFWAMNRDAELPTPGLTVTFIDRILDVTSYVNDQLKKDEDPNGTNYLSPSYLSKVAERFAKDENIEVTPATKLELKAFYGGNKYYMFVKTVYSDIRMVGAPPSSIGKFGADTDNWMWPRHTGDFSLFRIYADKNGKPAAYSRDNVPLQVKKHLKISIAGVQEGDFTFVMGFPGRNWRYMISDEVEERMQTTNFMRQHVRGARQKVLMEQMLKDPAVRIHYASKYASSANYWKNAIGMNEGLVRLKVLDTKRKQQEELLARGREKGDDSYQKAFDEIRSIVAHRRDALYHQQALNEALVTALDFMRLPSTTEMVTALKSKNKEQIKTATENLKQAGEKYFASVPFPEVERMVAKTMLQTYASYIPEEQRINIFEIINSRFKGNIDSFVDACFEYSIFGNPKNFEKFIKKPSLYKIGHDWMVLFKYSITDGILKTAIAMKEANQNYDAAHKVWVKGMMDMRQEKGMPIYPDANSTLRLTYGQVLSYEPADGVVYDAHTTLKGVMEKEDPGNWEFVVPQKLKELYKARDYGRYGKDGEMPVCFIVNTDNTGGNSGSPVFNSKGQLVGTAFDRNYEGLTGDIAFRPSSQRAACVDIRYTLFIIDKYAGASHIIDELSIE | not soluble
2 | MAHHHHHHMALKLCKRFLRSNTKKPIFSKARDNLKERFDDDNYSFLEDNSFDSPLKASDEFPSYMQPSDKNSSWSEEWRDENLKLREKENRYNLRVSDNYAYSVPYNYKIVIPHKGKNIKDEKDKRKKLLNDEKYIKEEYSRDVSNTLNYSDFCGFRNPTLSTFENYRYWQDSGFKKFMNRIFPIKIPEHRKIDPLLREYIYFLHSFDPYRFTFKRLSERYLFPENVIRSIYKEESVKRFLEDYHLCDDKTKRISKKEAVLKIKELIYSKKIGYKDIGDYENIKNEQDEFCGHKNTFDQINRQIIQVESISAFPLADRRNPVPKRVDIDMTVCNTSNIKIMNWINPNDKVIF | soluble
3 | MFRQLSELYISTLKEAKERSPPNFDDTPRGLLLALIKDRPTIWNSSARLTKDDVLASFQQCSAILSNMDPGYSIWAVIEKWCWVVESYVRCSVTAPPSEWRYNNTLDYLKQFATTSYPYLGCLSKKRRNELTKLYNDPEINVVMQKTEEIEFPVGIFRDEMLYLSGEDHLMQYDLELRTVGQVVNAKRRGRPSKVDKRSPVDNFYNLTPQSAQFQKLLESNMSSAFSIAFAESELIPDDLGFSPAMYMALIDMIQDKPELWQSNHPQKDNLQAQEQLFEDFGKQLIIKFRDTADISVLEKLTGPYVHLVWERLLEKFKEEDSLETVSKWKYYQVGSAGLSARLAIASPSGSSQSEDSRMAASSPSTAFIGMPTTINGNKSIQTVLDNLIAARSKKEDHAASTTSVLQAPNYSELKQMLEKNNILKVDNENGPPLKRVKQEIESPPGSSRMIVYNDTRKTTNAPISTWVPPREDLTAKVKDETVQSVPQRKAQATAVIKSGFPLEKHLKKQAVPSMIPVTSSSIPQRNGILGLNSMILPPSAIQQALLKKMDVPTTTPSMSSTSSSQAQSSMNGVINGNNTEVEDKWTLLGRMIAMMAREIETRDPMSACELTRDLQQVIFQYNMKTLRPKENNSSSSSQ | not soluble
4 | GPGSMGCLPPDDLGPFVSDHVDVNEAEPVPLSDEDLDLLVRYSLLPTDVVREAWAVFNHYRVVECLRAQQRHYAMTGHLPQKSTVSMSARPFPVAECGGKLFTTPVRAASGDCNAVKEEEKAPVSPRDCVTGENSECRKEEVEVAVLGAEGLRQFFEDTGAPIPTLEVTSFLRRMSQPPVEYLLYQRALEEKLTGAAAAAAPPREESPGVGQRKKSPQTDQSKHNKGQSVGRGQRPNNNTKSLNILVDDHIDLLEEQRGSGGETVTFPLFLYILSNAELGKNFTADVRESEINTLFRTLDVDGDGVVSVDDIQRLLEERCSLGDTLYEDRDIRYLRGMNLTELKAALRECDVDEDGAVRLNDFRSVLSS | soluble
5 | MPEKKPVTAENSVGIDLGIEKFAILSDGIAVENPRFIKRVEKRIKKLQKQISRKKKGSKNYEKQKIRIQKKYRKLRNLRDDFHDKVSTAIAKRYDTIFIEDLNVRGMQRNHHLARSITDVSFYSFKEKLKWKADRYGKNLIEIGRFDPSSKLCSRCGNIKKDLKLSDRVYSCDACGLTIDRDYNASLDIRKIGLVKVGLVPPEFTPVEIATSGLDGIYPYRQMSVGESGRSEASAEELEHHHHHH | not soluble
6 | MGSDKIHHHHHHMTVFILNGEEPNQEGVRYVAKLLKREKLVEDIHFSTIDEIPLDNSYVLGDHSGTYFILKKIKPNALISLDAHTDLMQDYFDHASWLAYALKDNIIKRASVIGAVLMIPTTSGTKLWKRGVKVFPALPRTKKIRGKWKAYTNLEQHGVERVLKETREFLGKEIYLSIDLDVLSPEYRIARFQHGELTLRELLDIIEAIKKNFKIIAFDVAEISFRVAKSKYGRRAIIEVFSSLKEVFE | not soluble
7 | MYSIIRPFLLHAVTSVHAGSGSEIGLVDLPIQREKHTGFPKIESSSLKGALRYHMTQALPDETNKLELIFGADKGQESVTQASAIALSDARVLLFPVKSLRGVFAWITCPHVLERWNQEMSVHQEMKGKGEGFQSLPVPGPNTVSADRLIVADGRIILEEYTFPVTVSPEAKQLAEQLSAIIGESSRLRVTDRLVILSDDDFTDFVKLSTEVNARIRISPETGTVDSGALWYEENVPPETFFYSFLYIGHVRGKGVDGLATAEEIERYLVDERKFPSVFQLGGNSTLGRGMMRTIWL | not soluble
8 | AHHHHHHGSIRVRNLSFSYNGRAILRDIAFEVKEGEFLAILGPNGAGKSTLLRCLAKILKCEGEIEICGRNLHEYSRRELSKTIAYVPQRVEPNFLRVFDMVLLGRKPYMGIIPSEEDIKAVERALKTLKIEHLAGRLTKTLSGGELQKVAIARALAQESSIILLDEPTNNLDPRSQVDLMNLLRKLSQAGKTIVTVMHDINLALRFAEKLMFMKNGEVVGIVETKKISPEIIEETFNVKAEIFETPSGVKFCQFY | soluble
9 | MKHSHLYELQPDPYDFTQRKTCRVCLFKDVKNAAELSQQLKEGKIDAALIRAELVLEPFVLLAAANRAVHQSAHNRMSCRSLAAELVYSLSPSRNITDSLVTFGIAEHSTAIIAAIFDDDSGKAMKKLAKAIKGTPVPLMEGLPKFANVNMIKKVYQVGNPAFVEEGLSDHIVSRMVSKDFVS | not soluble
10 | DPDQFRAIIESPEGAGHVGYQYRRNTGSTMRMVSDVLDERVSLWDFHCDPSGNVIQPGPNVDSRQYLQAAIDYVSSNGGGTITIPAGYTWYLGSYGVGGIAGHSGIIQLRSNVNLNIEGRIHLSPFFDLKPFQVFVGFDNGDPASSGNLENCHIYGHGVVDFGGYEFGASSQLRNGVAFGRSYNCSVTGITFQNGDVTWAITLGWNGYGSNCYVRKCRFINLVNSSVNADHSTVYVNCPYSGVESCYFSMSSSFARNIACSVELHQHDTFYRGSTVNGYCRGAYVVMHAAEAAGAGSYAYNMQVENNIAVIYGQFVILGSDVTATVSGHLNDVIVSGNIVSIGERAAFSAPFGAFIDIGPDNSGASNVQDIQRVLVTGNSFYAPANITDSAAITLRANLNGCTFIANNFDCRYMVYNAPGTTSPVVQNLVWDKSNVIGGTHANQRAGQNLFDMQFASVVNSTIEVQLSCEDLSMFSCILFPASCQLSYSKITVDSAWTKSMSNTAVFEGNQQAGANVYVSYPATVNLTSYNTQGAVPFFSTDTNYAWVTSAYSLSINENLDFSPPATYTNKANGQLVGVGYNEIGGVRSVSVRLMLQRQV | soluble
11 | MSYLVVTIKVILITGMPGSGKSEFAKLLKERGAKVIVMSDVVRKRYSIEAKPGERLMDFAKRLREIYGDGVVARLCVEELGTSNHDLVVFDGVRSLAEVEEFKRLLGDSVYIVAVHSPPKIRYKRMIERLRSDDSKEISELIRRDREELKLGIGEVIAMADYIITNDSNYEEFKRRCEEVTDRVLKNG | not soluble
12 | KQVYAFDIQKQALEKTQERLHQADLTNAQLILQGHETLDQFVIKAKAGIFNLGYLPAADKSVITRPQTTIEALEKLCGLLVKGGRIAIMIYYGHEGGDLERDAVLDFVIQLNQQEYTAAIYRTLNQVNNPPFLVMIEKLERYRH | not soluble
13 | SKAWLHQYSVVGRKIPTQEEPEPPIYRLKIFAPNVVNAKSRFWYFLRKLKRVKKSSGEILNISEIFEKKSTQVKNYGIWIRYKSRSDTINMYREYRDVTVNGAVEQMYKDMSGRHRARWSSIWVLKAMPVAAKDCRRSKVTQFHDSKIKFALPHMRPRAPLKKYNTPFKAKRPTTIVQ | soluble
